According to the DeepSol protein solubility set:

test: soluble on expression in E. coli; label from the status in PepcDB or PDB records

Soluble on expression in E. coli, not soluble:
MGSDKIHHHHHHMSLLSVEHLSHGFADKELYEDANFELNKEDHMGIVGQNGAGKSTLIKILTGETLPDKGRIIWQNKVTYGYLDQYADIPKEDTLYEFLTTAYAELFRQRDLMEKYYADYAENLDDKLLEKAGRIQENLDANNFYDIDTEINRVMTGLGLDDIGKDHIVSEMSGGQRSKIILAKLLLQNPDVLILDEPTNYLDTAHISWLADYLNGFEGAFMVISHDYDFLQKVTNCICDVSFNKITKYRGDFQSAMRQKDARKEAQLKAFEKQQVVIEKAENFIRKNKAGQRSTMAKSREKMLNRMEKIDPPSENLKGHFDFPYLDTGSQNAVAVNKLAVGYGKKQLLEPVTFSMSAGEKVAFSGFNGAGKSTLIKSILGVIPALGGEAHFSPSAKVNYFTQELIWDNPKLTPLETIQNQYPKMLPKTIRTKLAKCGINAADTMKPMKQLSGGEQTKVKLALMELIDSNFLIMDEPTNHLDDETKRALSEALQRFKGNLIVVSHEDSFYSQWIDKEINVEKLRLDRE
MGSDKIHHHHHHMSLPSIKTTNSYCVVLWCDQGSATINAPDRVVQVMAGDVVLAPHGAFVTGHGVVLPMAFPDFDGGEHTRRLHMGTAWSKRMIFEFSRSLLGETRPSECIAALFDDRARPPRVPEPQAARKVAQKLIAYPADQTPLLEFAQLHNISSRTLQRQFVASTGFTFSEWRAALRVSVAADLLAHDFRIGQVSQMVGFSATSSLTRAFKRHTGDTPSSFTSPRMHAVCEQQPPMIPATTTFARASDDIALWIYSGTATVTTPGYCRFMGAGETVTIPSGTSTRLDVSAGSVALPVPLAAAHDDLTLSDVLAASVNPLAAVELQRLSAQERADVEQVLVPSV
MGSDKIHHHHHHMSLQSLKINFAEWLLLKVKYPSQYWLGAADQPVKAAAHQKKIILTLLPSHDNLGDHAIAYASKAFLEQEYPDFDIVEVDMKDIYKSAKSLIRSRHPEDMVFIIGGGNMGDLYRYEEWTRRFIIKTFHDYRVVQLPATAHFSDTKKGRKELKRAQKIYNAHPGLLLMARDETTYQFMKQHFQEKTILKQPDMVLYLDRSKAPAEREGVYMCLREDQESVLQEEQRNRVKAALCEEFGEIKSFTTTIGRRVSRDTREHELEALWSKLQSAEAVVTDRLHGMIFCALTGTPCVVIRSFDHKVMEGYQWLKDIPFMKLIEHPEPERVTAAVNELLTKETSRAGFPRDVYFKGLRDKISGEAQ
MGSDKIHHHHHHMSMNSEPTPAEAFFLEGNRLLAASECRAAEACFREALALAPDFAEAHANLGMLLDQEGMAAEAERQYRLALALNPRLGHTHSNLGVLLANQKRFEEAESAYLSAIELEPDSPAAWSNLGVLQACRKQEREAEESYRTALRLDPDYHRASFNLSYLLLRQGRFDEGWSLLESRNRRWFARLEEHLPCPRWRGEDLQGRSLLIGLEAGHGDMIQFCRYAPLLKDRGAARITLVCHVALKDLLKTLDGVDTVISFDEILPDDAWDFWTPAMSIPCYCRTRLDSIPARIPYLHADPGLAEQWAAMLEREWAGPEMRIGLAWKGNPHFENDGDRSLPHLKTLEPLGAVAGVRFFSLQKGAGEEEAAQPPAGLPVVNLMRHIAGFADTAALVANLDLVITVDTAVAHLAGALGTECWVLLPEYRTDWRWLTGRTDSPWYPGVMRLFRQPRVGDWETVVAEVGEALRLFAARPRSPRGTR
MGSDKIHHHHHHMSMSVQQIDWDLALIQKYNYSGPRYTSYPTALEFSEDFGEQAFLQAVARYPERPLSLYVHIPFCHKLCYFCGCNKIVTRQQHKADQYLDALEQEIVHRAPLFAGRHVSQLHWGGGTPTYLNKAQISRLMKLLRENFQFNADAEISIEVDPREIELDVLDHLRAEGFNRLSMGVQDFNKEVQRLVNREQDEEFIFALLNHAREIGFTSTNIDLIYGLPKQTPESFAFTLKRVAELNPDRLSVFNYAHLPTIFAAQRKIKDADLPSPQQKLDILQETIAFLTQSGYQFIGMDHFARPDDELAVAQREGVLHRNFQGYTTQGDTDLLGMGVSAISMIGDCYAQNQKELKQYYQQVDEQGNALWRGIALTRDDCIRRDVIKSLICNFRLDYAPIEKQWDLHFADYFAEDLKLLAPLAKDGLVDVDEKGIQVTAKGRLLIRNICMCFDTYLRQKARMQQFSRVI
MGSDKIHHHHHHMSNCFNPANILLPKDGIDMEKWSVIACDQYTSQADYWKTVEEFVGDAPSTLNVVFPEIYLGNKKNDKNCACENGSCADDHTTMYASMSDSERIACINSTMEKYLSDGIIQQVVTDGYVLVERTTESGVRLGIVGLVDLDDYDFDPKNPTLIRATEGTVISRIPPRVKIREHAAIELPHVMLLVDDPVDKADDASDEGKLTDIYNIGNIEHGIIEYVYSLKDSFRKLYDTDLMQGGGHIRGYAIEGEAAKQVTAAFAKKQEQSGGFLFAVGDGNHSLATAKTCWENIRKSQKFTDEQLKTHPARYALVEICNLHSKALEFKPIHRLLTKVNVEDMLAFFNEQLKEQGLECAEGNEIIFEYVESSDSIDENASGYEARVCTYAINIINRGDRLPVEILQGILDKYIKSHEDTEIDYIHGDDALHRLVKETNGCGIFLQSIDKSTLFPAINAGGVLPRKTFSIGEANEKRYYMECHNIQVK
MGSDKIHHHHHHMSNELESNDVIKISVSHLALGMFVTAIDNAKGALSITNPGQIKTQDAINKLLKSGIKSVWVDVERSADNCGLKKTSAESFEPTKGNPLARKAKPSRDSKQAQVKVILNEAKNLVRKVLSETYEGKAVEVAPFEEIADRMIESVMDDADAMKCISALRTKDAYLLEHSVNVAFLLVTFGKHLGLDKTMLKEMAVGGILHDIGKIKVDNEVLHKPGKLTPEEFAHIKLHQVYAVEIMEQTQGLAQVSKDVCLMHHEKLDGRGYPKGLKGDEIPLHGRMSCIVDIFDALTATRCYKEAMSPAAAFKILISLTPFHLDQALVYEFIRCVGIYPVGSLVQLSDERIGIVWEAKDRDALHPVVKCFYSLKHKRYTEVTMVDLRKAEVNIERGVSPGTLDVDPTPFY
MGSDKIHHHHHHMSNQPHKPYGTPEPTYSGNKRSLILAGGGMRVAYQAGAIRALIESGLCFNHADGTSGGTMNLAMLLSGLSPIEMCDRWQTLNVKDFVSFIPLEKYLKAWDLLSMGDADGIIDRVFPHLGIDISKINASEGMQGTFNVCNFTHKTNEVIPHDRLDLDLLVAGISLPIFMPPVQKGDYLYMDSVWIKDVNLMEAVRRGADELWVLWCIGNSSEYQTGIFNQYVHMMELSANGAFFEECDRINEINQRILQGETVYGHTQPIKLHLIKPAYPLPLDPDYYLGNIDGATLVDMGYADAKQYLQTMSPAGLPFQPDVTRMHNNLPGMTFRESMAGAFVLNETDPIQGAAKGKAHNSSLSLQLTINICDLKRFLGDTTFTASIAGNISFANFGEHIPFKRGVFNLFAHDHNPGYKYITYELAFEHGNQDYYLVGKKELHNDPGFDLWQDMTTIYTYLHQGTDNNSPIIGSGILTLDVGDVAKCVSGWRITNAKSLTEKTTLLAEFGSFFWGNIWETYQP
MGSDKIHHHHHHMSNTQKVPVTILTGFLGSGKTTLLNRILSEEHGKKIAVIENEYGEVGIDQGLVINADEEVFEMSNGCICCTVRGDLIRVLGNLMKRRDKFDYVLVETTGLADPGPVAQTFFMDDEIREEFSLDGIVTLVDAAHIEQQLGRSDESSEQVAFADVLVLNKTDLVSDESLDNLESRLRDMNRMARVIRSKQADVSIDTVLNLSAFDLDQVLQRRPTFLEPEYPFEWTGVFSLEKGRYELTLEEGPDPTMSLVQLLDQGKDETALNTGAESCVRLYAEQEQLMNPGDLVPVGKHVNLQLQSEGTKSFFIDVDKARDIGLFTQHTAEEFNMKLTKVNTPSTDEIDNDQNISTISPIAERVWVAEHEHDDEVGSFAIEREGDVDPEKLNRWLSRLLSEKGVDIFRTKGFISYAGESKRIVFQGVHMLFTAQPDKEWGNEPRRNQLVFIGRNLDEAEMIKEFDKCLV
MGSDKIHHHHHHMSNTVRAISPDITLFNKTLTFQEISQNTREAVIYIHGGAWNDPENTPNDFNQLANTIKSMDTESTVCQYSIEYRLSPEITNPRNLYDAVSNITRLVKEKGLTNINMVGHSVGATFIWQILAALKDPQEKMSEAQLQMLGLLQIVKRVFLLDGIYSLKELLVEYPEYDCFTRLAFPDGIQMYEEEPSRVMPYVKKALSRFSIDMHLVHSYSDELLTLRQTNCLISCLQDYQLSFKLYLDDLGLHNDVYKNGKVAKYIFDNIC
MGSDKIHHHHHHMSQAFLASENEQIKDYYEENGYVVVKNAVSLEKITDFINKYENFKISKNYYFRSQDTNRAEKLAINEKGFIERSILNPLELVYQKDFCRSSSNIICADSVSQILRTLTGKQKHTIWQTMFFDKSTGTVAHQDHYYLDSDPPGNLIACWYALEDIQEDAGAFFVVPKSHKGSVIPRKTDVPLFSDHEEYAKNIQKLINEQSYPIQPMLLEKGSVLFWHPYLIHGAFQNTNPKYSRKSFTAHFLPEGYSRLGISRVKPTVISTNPNILSWKKNLLHHAEASIRHWRYWLQVNLRPKSQRPYLEMRSSEYLDIK
MGSDKIHHHHHHMSQATAKVNREVQAFLQDLKGKTIDHVFFVACGGSSAIMYPSKYVFDRESKSINSDLYSANEFIQRNPVQLGEKSLVILCSHSGNTPETVKAAAFARGKGALTIAMTFKPESPLAQEAQYVAQYDWGDEALAINTNYGVLYQIVFGTLQVLENNTKFEQAIEGLDQLQAVYEKALKQEADNAKQFAKAHEKESIIYTMASGANYGVAYSYSICILMEMQWIHSHAIHAGEYFHGPFEIIDESVPFIILLGLDETRPLEERALTFSKKYGKKLTVLDAASYDFTAIDDSVKGYLAPLVLNRVLRSYADELAEERNHPLSHRRYMWKVEY
MGSDKIHHHHHHMSQKIAYQRLEDILKKGSRIALYARYSTGKQDENAQIHSVRNFLSDYGCELLDDNIYIDPKTSAVKVPMDQRKDLQRLIKDSKENKFDCIVSYKNDRIARNTQEHNELRTEMQRLGMPVVLSSTREIYTVGEIVPLTIKDALTQIEPLLIAERTRDTFSSKIENGEWTGGQAPYGYIYDKETELFEITDKKVEVVQEIFRLFKLGYGLQQIANKLIADRRDIGQKWYKDKIKYIITNPFYAGHMTMNRYVKGKLQLKMETWTWSKKQESIPAIMSRDEWEYCFYLYVERRKSQTVRKSSTPFWLRDILHCNECQLPFKTKNQKTKSKRKNGEKVEYGKILYECRNCGLKLETEKIHDKFKEDVGRVLKKLLEKHRENLIQQTQLQIEKEHEEITNVQKELANKRIKLIENIDVLDKKISQLYKDITTGKGLKANHTEDVLGKEDEQDDWNSKLVEILLTGRSQKHNDLEEIKQQQQLLEDKQESLNIVMNALKNQYQDELLNFSFDPENEKSMRNFLLQFVKAVYVSRDMRLDYKIYENLISE
MGSDKIHHHHHHMSQPLFPVVEVPDFISEDSQYDTQYKRSMKWNTELGDFVRDGAHRIKECDGKEAFAIWCFKIAQTERYRCLAYPDSIGTEMERAMDNDDEKTVESMVERTITDAIMVNPRAENVRDFQFTWEGDQMHVTFKVKGSNWDEEIEISL
MGSDKIHHHHHHMSQSAITVDQVTVTYRNGHTALRDATFQVPGGSIAALVGVNGSGKSTLFKALMGFVHLAQGDITILQQSVNKALKKNLIAYVPQSEEVDWSFPVLVEDVVMMGRYGHMGWLRRPTAHDHACVDAALARVDMQEYRHRQIGELSGGQKKRVFLARAIAQDGQVILLDEPFTGVDVKTEARIIDLLRELRDEGRTMLVSTHNLGSVTEFCDYTVMIKGTVLASGPTETTFTAANLEQAFSGVLRHIALSGGEEHIITDDERPFISRRVASGGKSS
